Source: the supplement of paper PMC9170038

Test system: MS2 coat protein
Assay: apparent KD of MS2 coat protein; designed switch direction (-1 OFF switch, 1 ON switch): -1; higher = weaker reporter binding
Outline: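 Stalled E. coli RNA polymerase transcribed designed RNA switches on Illumina chips, which were then titrated with SNAP-549-labelled MS2 coat protein, doubling from 0.7 or 1.5 nM to 3 µM. Steps lasted from 0.8–1.5 h at the lowest concentration to 10–20 min at the highest. The apparent KD is each design's median over clusters of curve-fitted normalised fluorescence.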

[1] = input ligand: microRNA oligo, concentration not stated
[2] = Eterna round: R95, input ligand: microRNA oligo, concentration not stated

| Sequence | apparent KD of MS2 coat protein (input ligand: FMN 200 uM) | apparent KD of MS2 coat protein [1] | apparent KD of MS2 coat protein (input ligand: none) | apparent KD of MS2 coat protein [2] | apparent KD of MS2 coat protein (Eterna round: R95, input ligand: FMN 200 uM) | apparent KD of MS2 coat protein (Eterna round: R95, input ligand: none) |
| --- | --- | --- | --- | --- | --- | --- |
| GUAAUGCUGCGAGGAUAUACAUGAGGAUCACCCAUGUGGAUGUCUGAGGCAAAGCCUCAGACGAUGUAGAAGGCGCAGUAAAAU [Mat - Exclusion NG 2 - Mod of JL - D54] (Eterna round: R96, puzzle: Exclusion NG 2) | 85.7 nM | 17.6 nM | 44.4 nM | – | – | – |
| GUACAACAUGAGGAUCACCCAUGUGAGGAUAUGCGAAUUUCAUCAAAAGAUGAAAUUUGCAGAAGGCACUGUAC [Omei Ex1 A10] (Eterna round: R97, puzzle: Exclusion 1) | 19.2 nM | – | 20.8 nM | – | – | – |
| GUACUAAAGCUUUGCUUUAGUCGUACAUGAGGAUCACCCAUGUAGGAUAUGGUAAGCAUAGCUUACUAGAAGGAUAGAGUGAUC [Mat - Exclusion NG 3 - Mod of JL - D66] (Eterna round: R96, puzzle: Exclusion NG 3) | 285 nM | 146 nM | 145 nM | – | – | – |
| GUACUGAAGCUUUGCUUUAGUCGUACAUGAGGAUCACCCAUGUAGGAUAUGGUAGGCUUUGCUUACCAGAAGGACAGAGUGAUC [JL EXNG3 1.25] (Eterna round: R96, puzzle: Exclusion NG 3) | 68.6 nM | 83.7 nM | 85.3 nM | – | – | – |
| GUACUGACAGGAUAUACAUGAGGAUCACCCAUGUGCCUUAGCGCUACAAAAGUAGCGUGUAGAAGGGUCUGUAC [Omei Ex3 Model Bachelor's Dilema v15] (Eterna round: R97, puzzle: Exclusion 3) | 36.8 nM | – | 15.4 nM | – | – | – |
| GUAGAGUCAGGAUAUACAAAUAGAUCGAAAGAUCAAUCCAUACAUGAGGAUCACCCAUGUAGAAGGGACUCUAC [Eli x2 4.15] (Eterna round: R97, puzzle: Exclusion 2) | 20.5 nM | – | 16.7 nM | – | – | – |
| GUAGAGUCAGGAUAUACGAGAUCGAAAGAUCUUUGAUCCUAACAUGAGGAUCACCCAUGUAGAAGGGACUCUAC [Omei mod 3 to Eli's favorate candidate (ch.parushev)] (Eterna round: R97, puzzle: Exclusion 2) | 698 nM | – | 58 nM | – | – | – |
| GUAGAUCGAGUUAGGAUAUGAUUAAAAUUCGGAUAUCAGAAGGAACUUGAGGAUCACCCAAGUAUAGAUGAUUC [JR_BMEx4_Sub057] (Eterna round: R97, puzzle: Brourd's mod of Exclusion 4) | 135 nM | – | 29.8 nM | – | – | – |
| GUAGCUCUCGAGGAUAUGGAUAGAAAAGUUAGUCCAGAAGGCGAGACAUGAGGAUCACCCAUGUUGGACUCUGC [Eternabot (L2) Solution 77] (Eterna round: R97, puzzle: Exclusion 6) | 118 nM | – | 60.4 nM | – | – | – |
| GUAUCCGAGAAGGAUAUCAAUGGCCCGGACCACUGAGAAGGUCUCACAUGAGGAUCACCCAUGUCACAGGUGCA [Eternabot (Original) Solution 29] (Eterna round: R97, puzzle: Exclusion 6) | 74.1 nM | – | 70.3 nM | – | – | – |
| GUAUCGUGAGGAUAUCAUGAUUGACUUUUAUUUUGUCAGCGUGAGAAGGCACAUGAGGAUCACCCAUGUGAUUA [Ex4 - 3 - 8] (puzzle: Exclusion 4) | – | – | – | 23.2 nM | – | – |
| GUAUGUUAUGAGGAUAUCGGUGAACAUACACAUCGAGAAGGCAUGACAUGAGGAUCACCCAUGUCAAGGAUGUA [Exclusion 6 - B - 18:b] (puzzle: Exclusion 6) | – | – | – | 15.3 nM | 25.5 nM | 20.8 nM |
| GUCACAUGGGUGUAGAAUCACAUGAGGAUCACCCAUGUGACUAACAAGCUUUUUGCUCGUCUUAUGUCUAUGUGAAA [Stov1/17-A1] (Eterna round: R97, puzzle: Sensor, turn-off variant 1) | 47.4 nM | – | 40.5 nM | – | – | – |
| GUCAGACGAGGAUAUAGAUUUAGAUACAUGAGGAUCACCCAUGUAUAGAUGUAUUUAGAUUUAGAAGGCGUCUGAC [E5/13-A3] (Eterna round: R97, puzzle: Exclusion 5) | 231 nM | – | 201 nM | – | – | – |
| GUCAGCUCGUCAGGAUAUAUAUACAUGAGGAUCACCCAUGUAAGAUCAGGCUUCGGCCAAUGUAUAUAGAAGGGACGAGCUGAC [ENG2/11-B1] (Eterna round: R96, puzzle: Exclusion NG 2) | 500 nM | 691 nM | 716 nM | – | – | – |
| GUCAGCUCGUGAGGAUAUACAUCACUGCUUCGGCAGUGUAUUAAGAUCACAUGAGGAUCACCCAUGUAGAAGGUACGAGCUGAC [ENG2/2-C1] (Eterna round: R96, puzzle: Exclusion NG 2) | 180 nM | 21.5 nM | 22.1 nM | – | – | – |
